Measured values published in doi:10.1101/2020.06.22.20137695.

Legend:
[1] = biological target: MERS-CoV spike protein, recombinant soluble ectodomain trimer (MERS-CoV) (UniProt K9N5Q8); assay: SEC
[2] = biological target: SARS-CoV spike protein, recombinant soluble ectodomain trimer (SARS-CoV) (UniProt P59594); assay: SEC

Row | Substance | stoichiometry N [1] | stoichiometry N [2]
1 | MERS-CoV spike protein, recombinant soluble ectodomain trimer (from UniProt K9N5Q8 18-1296) (domain or fragment) | 3 | 
2 | SARS-CoV spike protein, recombinant soluble ectodomain trimer (from UniProt P59594 14-1195) (domain or fragment) |  | 3
